Among the data in patent publication US20200207829 are EYFP activation score values, retold here.

In the series the test system is TMt-NES-dCas9VP64.

On to TEVC151A, for which the EYFP activation score result is “did not show any activity above baseline levels”.
